Source: doi:10.1101/2024.03.15.585200

Molecular target: Toxoplasma gondii ABCB7 homolog (TGGT1_269000) (Toxoplasma gondii)
Experiment: native gel or EMSA

Toxoplasma gondii ABCB7 homolog (TGGT1_269000) (natural protein)
stoichiometry N: 2
